Laboratory results published in patent publication US20150239975A1 (KOREA RESEARCH INSTITUTE OF BIOSCIENCE AND BIOTECHNOLOGY, published 2015).

T1: transmembrane 4 L six family member 5 (TM4SF5) protein (human, UniProt O14894 1-197)
T1 sequence (looked up): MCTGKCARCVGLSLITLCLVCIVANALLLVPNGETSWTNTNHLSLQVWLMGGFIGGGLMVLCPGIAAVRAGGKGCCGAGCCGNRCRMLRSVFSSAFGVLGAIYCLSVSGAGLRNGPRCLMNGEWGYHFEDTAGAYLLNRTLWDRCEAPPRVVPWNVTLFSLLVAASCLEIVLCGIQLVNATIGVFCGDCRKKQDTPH

B1: monoclonal antibody #1 (scFv-Fc form) (Fc fusion, not shown: a dimerising Fc or GST)
scFv: EVQLQQFGAELVRPGASVTLSCKASGYTFTDYEMHWVKQTPVHGLEWIGAIDPETGGTAYNQKFKGKAILTADKSSSTAYMELRSLTSEDSAVYFCARLTLFYGNYDWPFDVWGTGTSVTVSSADIVMTQSQKFMSTSVGDRVSITCKASQNVRTAVAWYQQKPGQSPKLLIYWASTRHTGVPDRFTGSGSGTDFTLTISNVQSEDLADYFCQQYSSYPFTFGSGTKLEIK
B2: monoclonal antibody #92 (scFv-Fc form) (Fc fusion, not shown: a dimerising Fc or GST)
scFv: EVQLQQSVADLVRPGASVKLSCTASGFNIENTYMHWVKQRPEQGLEWIGRIDPANGNTKYAPKFQDKATITADTSSNTAYLQLSSLTSEDTAVYYCTSLGAYWGQGTLVTVSAADAVLTQTPLSLPVSLGDQASISCRSSQSIVHSNGNTYLEWYLQKPGQSPKLLIYKVSNRFSGVPDRFSGSGSGTDFTLKISRVEAEDLGVYFCSQSTHVPLTFGAGTKLEIK
B3: monoclonal antibody #88 (scFv-Fc form) (Fc fusion, not shown: a dimerising Fc or GST)
scFv: QVQLQQFGAELVRPGASVKLSCKASGYTFTDYEMHWVKQTPVHGLEWIGAIDPETGGTAYNQKFKGKATLTADKSSSTAYMELRSLTSEDSAVYYCTPNYWYFDVWGAGTSVTVSSADAVVTQTPLSLPVSLGDQASISCRSSQSLVHSNGNTYLHWYLQKPGQSPKLLIYKVSNRFSGVPDRFSGSGSGTDFTLKISRVEAEDLGVYFCSQSTHVPYTFGGGTKLELK
B4: monoclonal antibody #27 (scFv-Fc form) (Fc fusion, not shown: a dimerising Fc or GST)
scFv: QVQLQQFGAELVRPGASVTLSCKASGYTFTDYEMHWVKQTPVHGLEWIGAIDPETGGTAYNQKFKGKAILTADKSSSTAYMELRSLTSEDSAVYYCTRPYLGYWGQGTTVTVSSADAVVTQTPLSLPVSLGDQASISCRSSQSLVHSNGNTYLHWYLQKPGQSPKLLIYKVSNRFSGVPDRFSGSGSGTDFTLKISRVEAEDLGVYYCFQGSHIPLTFGAGTKLELK
B5: monoclonal antibody #79 (scFv-Fc form) (Fc fusion, not shown: a dimerising Fc or GST)
scFv: GVQLQQSGAELVRPGASVKLSCKASGYTFTDYEMHWVKQTPVHGLEWIGAIDPETGGTAYNQKFKGKAILTADKSSSTAYMELRSLTSEDSAVYYCTVYGLAYWGQGTLVTVSAADVVMTQTPLSLPVSLGDQASISCRSSQSLVHSNGNTYLHWYLQKPGQSPKLLIYKVSNRFSGVPDRFSGSGSGTDFTLKISRVEAEDLGVYFCSQNTHVPYTFGGGTKLELK

Molecular target: T1, transmembrane 4 L six family member 5 …
Test: cell-based or functional assay

Row | Protein | inhibition of invasion of TM4SF5-overexpressing liver cancer cells (Tp), transwell assay, 20 µg/mL antibody [%] | inhibition of growth of TM4SF5-overexpressing liver cancer cells (Tp, T16) in the absence of serum, 20 µg/mL antibody [%] | inhibition of infiltration of TM4SF5-overexpressing liver cancer cells (Tp), transwell assay, 20 µg/mL antibody [%]
1 | B1 | 83 |  | 
2 | B2 |  | ~50 | 46
3 | B3 |  | ~50 | 73
4 | B4 | 56 |  | 
5 | B5 | 49 |  | 
